Reference: article PMC13635227 (Nature Communications, 2026)
The star is where a group is joined. Biotin = O=C1N[C@H]2[C@H](CS[C@H]2CCCCC(=O)*)N1; AEEA = NCCOCCOCC(=O)O

Experiments:
Assay in all cases: BLI
[1] = target: T1, Biotin-PEG-EAEEPSLLKKLLLAPANTQ-NH2 (LXXLL motif peptide, amino acids 135-153 of PPAR coactivator 1α, PGC-1α) (SMILES …)
T1 peptide: {Biotin-AEEA}-EAEEPSLLKKLLLAPANTQ-NH2

[2] = target: T1, Biotin-PEG-EAEEPSLLKKLLLAPANTQ-NH2 …
[3] = target: T1, Biotin-PEG-EAEEPSLLKKLLLAPANTQ-NH2 …

- EC50 of ciprofibrate (small-molecule ligand of PPAR-α) in promoting the binding [1]: 5.4 µM
- EC50 of palmitic acid (small-molecule ligand of PPAR-α) in promoting the binding [2]: 190 µM
- EC50 of TFA (small-molecule ligand of PPAR-α) in promoting the binding [3]: 4.9 mM
B1: Full-length mouse PPAR-α (peroxisome proliferator-activated receptor α), tag-free (natural protein, UniProt P23204 1-468, looked up)
chain: MVDTESPICPLSPLEADDLESPLSEEFLQEMGNIQEISQSIGEESSGSFGFADYQYLGSCPGSEGSVITDTLSPASSPSSVSCPVIPASTDESPGSALNIECRICGDKASGYHYGVHACEGCKGFFRRTIRLKLVYDKCDRSCKIQKKNRNKCQYCRFHKCLSVGMSHNAIRFGRMPRSEKAKLKAEILTCEHDLKDSETADLKSLGKRIHEAYLKNFNMNKVKARVILAGKTSNNPPFVIHDMETLCMAEKTLVAKMVANGVEDKEAEVRFFHCCQCMSVETVTELTEFAKAIPGFANLDLNDQVTLLKYGVYEAIFTMLSSLMNKDGMLIAYGNGFITREFLKNLRKPFCDIMEPKFDFAMKFNALELDDSDISLFVAAIICCGDRPGLLNIGYIEKLQEGIVHVLKLHLQSNHPDDTFLFPKLLQKMVDLRQLVTEHAQLVQVIKKTESDAALHPLLQEIYRDMY
